From patent publication US7838294B2, “Inhibitors of the JNK signal transduction pathway and methods of use” (University of Massachusetts, priority 1997, dated 2010)

Key:
ERK2 = assay: Immune complex protein kinase assay: ERK, substrate MBP; assay type: biochemical, Chinese hamster; conditions: in vitro, 3 μg myelin basic protein
Procedure: To test whether JIP-1 competes with Jun and ATF2 for interaction with JNK, the effect of JIP-1 on transcription factor-mediated phosphorylation of exogenous substrates was analyzed using an in vitro protein kinase assay. In these experiments, Chinese hamster ovary (CHO) cells were serum-starved for one hour. In some experiments, the cells were treated with 10 ng/ml mouse interleukin 1 or 100 nM phorbol myristic acetate. JNK, p38, and ERK protein kinase activity was measured in an immune complex kinase assay using 3 μg of the substrates GST-Jun, GST-ATF2, and myelin basic protein (MBP), respectively. Protein kinase assays were performed using 40 μl 20 mM Hepes (pH 7.4), 20 mM MgCl2, 20 mM β-glycerophosphate, 2 mM dithiothreitol, 0.1 mM sodium orthovanadate, 50 μM [γ-^32P]ATP (10 Ci/mmol). After incubation for 30 minutes at 30° C., phosphorylation of substrates was analyzed by polyacrylamide gel electrophoresis and autoradiography.

[1] = tested on: c-Jun transcriptional activity; assay: GAL4 luciferase reporter assay in CHO cells: GAL4-c-Jun; assay type: cell-based, Chinese hamster; conditions: FIG. 4B
Procedure: In these experiments, CHO cells were cotransfected with constructs encoding the transcription factors and JIP-1 using previously described methods. Dérijard et al., supra; Sluss et al., supra; Gupta et al., supra. A luciferase reporter plasmid was used to monitor the expression of the transcription factors. Transfection efficiency was determined using a β-galactosidase expression vector. Constructs used in these experiments included GAL4 fusions with the c-myc, Sp1 and VP16 activation domains (described in Whitmarsh et al., Science, 269:403 (1995); Davis, Science, 269:403 (1995); Gille et al., Curr. Biol., 5:1191 (1995)). […]
Transfected cells were activated by treatment with 10% (v/v) fetal calf serum, and luciferase and β-galactosidase activities were measured in cell lysates at 48 hours post-transfection. The data are presented as the ratio of luciferase activity (light units) to β-galactosidase activity (OD units) measured in the cell extracts (mean±SEM (n=3)), and are normalized to the luciferase activity detected in the absence of JBD (FIGS. 4A and 4B) or ATF2 (FIG. 4C).

JNK = target: T1, JNK (Homo sapiens, UniProt P45983); assay: Immunofluorescence: subcellular distribution of JNK on JIP-1 expression; assay type: cell-based; conditions: HA-JNK1 with Flag-JIP-1; control and UV-irradiated cells
T1 construct: expressed in transfected cells; host or cells: COS-1 cells (co-immunoprecipitation)
T1 sequence (P45983 1-384 isoform P45983-2): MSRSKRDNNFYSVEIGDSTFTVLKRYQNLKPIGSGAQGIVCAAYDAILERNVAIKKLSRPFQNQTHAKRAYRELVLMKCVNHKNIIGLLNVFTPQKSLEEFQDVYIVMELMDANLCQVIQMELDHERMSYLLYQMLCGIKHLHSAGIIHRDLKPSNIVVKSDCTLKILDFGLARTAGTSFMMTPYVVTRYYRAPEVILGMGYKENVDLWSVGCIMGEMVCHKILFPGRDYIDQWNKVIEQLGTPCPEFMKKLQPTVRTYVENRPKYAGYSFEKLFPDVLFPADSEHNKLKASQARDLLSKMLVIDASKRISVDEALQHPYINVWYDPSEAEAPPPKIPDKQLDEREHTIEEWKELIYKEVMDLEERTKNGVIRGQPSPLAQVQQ
Procedure: The subcellular distribution of JIP-1 was analyzed by performing indirect immunofluorescence on JIP-1-expressing cells. In these experiments, the cells were grown on coverslips, fixed with 4% paraformaldehyde, permeabilized with 0.25% Triton X-100, and processed for immunofluorescence microscopy. JIP-1 was detected in the cytoplasm, but not the nucleus, of control and UV-irradiated cells. In contrast, JNK is detected in both the cytoplasmic and nuclear compartments.
It is likely that it is JNK in the nucleus which is involved in the regulation of gene expression. Since JIP-1 is cytoplasmic, it was unclear how it could inhibit the nuclear function of JNK. To investigate the mechanism of JIP-1 action, the distribution of JNK was examined in cells that had been transfected with either hemagglutinin (HA)-tagged JNK1 (HA-JNK1) alone, or HA-JNK1 and Flag-tagged JIP-1 (Flag-JIP-1). In these experiments, the cells were exposed to a potent JNK activator (40 J/m^2 UV-C) for one hour prior to processing for immunofluorescence. The primary antibodies used were rabbit anti-HA (12CA5; Boehringer Mannheim), which recognizes HA-tagged JNK1; and mouse monoclonal anti-Flag (M2; IBI-Kodak), which recognizes Flag-tagged JIP-1. The secondary antibodies were Texas Red-goat anti-mouse Ig and fluoroscein isothiocyanate-conjugated donkey anti-rabbit Ig (Jackson Immunoresearch). […]

p38 MAP kinase = target: T2, p38 MAP kinase (Homo sapiens, UniProt Q16539); assay: Immunofluorescence: subcellular distribution of p38 MAP kinase on JIP-1 expression; assay type: cell-based
T2 construct: expressed in transfected cells
T2 sequence (Q16539 whole entry): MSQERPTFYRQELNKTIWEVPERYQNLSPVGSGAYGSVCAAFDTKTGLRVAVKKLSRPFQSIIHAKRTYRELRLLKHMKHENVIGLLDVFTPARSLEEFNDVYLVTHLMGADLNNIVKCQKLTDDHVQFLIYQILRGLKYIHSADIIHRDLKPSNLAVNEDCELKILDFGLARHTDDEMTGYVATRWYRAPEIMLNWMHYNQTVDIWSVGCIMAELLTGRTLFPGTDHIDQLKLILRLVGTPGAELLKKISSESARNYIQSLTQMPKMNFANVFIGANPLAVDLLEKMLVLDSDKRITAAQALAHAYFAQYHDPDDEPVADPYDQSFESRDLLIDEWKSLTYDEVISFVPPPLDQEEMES

B1: JIP-1: 660 amino acid murine cytoplasmic protein that specifically binds JNK (protein)
chain: MAERESGLGGGAASPPAASPFLGLHIASPPNFRLTHDISLEEFEDEDLSEITDECGISLQCKDTLSLRPPRAGLLSAGSSGSAGSRLQAEMLQMDLIDAAGDTPGAEDDEEEEDDELAAQRPGVGPPKAESNQDPAPRSQGQGPGTGSGDTYRPKRPTTLNLFPQVPRSQDTLNNNSLGKKHSWQDRVSRSSSPLKTGEQTPPHEHICLSDELPPQGSPVPTQDRGTSTDSPCRRSAATQMAPPSGPPATAPGGRGHSHRDRIHYQADVRLEATEEIYLTPVQRPPDPAEPTSTFMPPTESRMSVSSDPDPAAYSVTAGRPHPSISEEDEGFDCLSSPERAEPPGGGWRGSLGEPPPPPRASLSSDTSALSYDSVKYTLVVDEHAQLELVSLRPCFGDYSDESDSATVYDNCASASSPYESAIGEEYEEAPQPRPPTCLSEDSTPDEPDVHFSKKFLNVFMSGRSRSSSAESFGLFSCVINGEEHEQTHRAIFRFVPRHEDELELEVDDPLLVELQAEDYWYEAYNMRTGARGVFPAYYAIEVTKEPEHMAALAKNSCVLEISVRGVKIGVKADDALEAKGNKCSHFFQLKNISFCGYHPKNNKYFGFITKHPADHRFACHVFVSEDSTKALAESVGRAFQQFYKQFVEYTCPTEDIYLE
phosphorylation of substrate by ERK2 (ERK2): no significant change | basal transcriptional activity of c-Jun mutated at JNK phosphorylation sites ([1]; GAL4-c-Jun (S63A/S73A)): not markedly inhibited | c-Jun transcriptional activity ([1]; wild type GAL4-c-Jun, CHO cells): Significant inhibition | amount of nuclear JNK (JNK): reduces | subcellular distribution of p38 MAP kinase (p38 MAP kinase): no significant effect
